Data on two substances can be found in article PMC5067487.

One may read the Kd as the equilibrium constant for the complex coming apart. Read a high Kd as lower affinity.

Test in all cases: ITC; peptide (100 uM stock in ddH2O) titrated into PadeB1 or variant (5-10 uM) in the sample cell; 50 mM Tris, 5 mM MgCl2, pH 8.0; 25 °C; One Set of Sites model; triplicate
A general note: In ITC the heat of successive injections is recorded.

In assay [1] the target is PadeB1 (Paenibacillus dendritiformis C454).
Assay [2] deals with PadeB1 K28A (Paenibacillus dendritiformis C454).
The target in assay [3] is PadeB1 I61A (Paenibacillus dendritiformis C454).
Assay [4] addresses PadeB1 Y38A (Paenibacillus dendritiformis C454).
For assay [5], the target named is PadeB1 D79A (Paenibacillus dendritiformis C454).
Assay [6] deals with PadeB1 W49A (Paenibacillus dendritiformis C454).
Assay [7] addresses PadeB1 N40A (Paenibacillus dendritiformis C454).
Assay [8] has as its target PadeB1 D23A (Paenibacillus dendritiformis C454).

full-length precursor peptide GP-PadeA yielded a Kd in assay [1] of 4 nM.

For the substance leader peptide of PadeA, the Kd in assay [1] amounted to 5.3 nM; in assay [2], 2.7 nM; in assay [3], 73 nM; in assay [4], 6.2 nM; in assay [5] it was 150 nM; in assay [6] it was 140 nM. Also, the dissociation constant (Kd) in assay [7] is 16 nM; in assay [8] it was 2.4 nM.
